# Source: patent US7087717B2, “Sp110, a polypeptide component of the nuclear body” (The General Hospital Corporation, priority 2000, dated 2006)
# B1: N-terminal portion: N-terminal portion of Sp110, containing the Sp100-like region, fused to VP16 or GAL4 (protein)
# chain: MFTMTRAMEEALFQHFMHQKLGIAYAIHKPFPFFEGLLDNSIITKRMYMESLEACRNLIPVSRVVHNILTQLERTFNLSLLVTLFSQINLREYPNLVTIYRSFKRVGASYERQSRDTPILLEAPTGLAEGSSLHTPLALPHHKPPQPSCSPCAPRVSEPGTSSQQSTEILSESPSPSDPVLPLPALIQEGRSTSVTNDKLTSKMNAEEDSEEMPSLLTSTVQVASDNLIP
# modifications: left off: large carriers
# notes: N-terminal portion of Sp110, containing the Sp100-like region, fused to VP16 or GAL4
# B2: C-terminal portion: C-terminal portion of Sp110, containing the PHD and the bromodomain, fused to VP16 or GAL4 (protein)
# chain: KRKNSDECEVCCQGGQLLCCGTCPRVFHEDCHIPPVEAKRMLWSCTFCRMKRSSGSQQCHHVSKTLERQMQPQDQLIRDYGEPFQEAMWLDLVKERLITEMYTVAWFVRDMRLMFRNHKTFYKASDFGQVGLDLEAEFEKDLKDVLGFHEANDGGFWTLP
# modifications: left off: large carriers
# notes: C-terminal portion of Sp110, containing the PHD and the bromodomain, fused to VP16 or GAL4
# B3: Sp110: novel 110 kDa polypeptide component of the nuclear body, 689 amino acids, SEQ ID NO:2 (protein, listed as Homo sapiens)
# chain: MFTMTRAMEEALFQHFMHQKLGIAYAIHKPFPFFEGLLDNSIITKRMYMESLEACRNLIPVSRVVHNILTQLERTFNLSLLVTLFSQINLREYPNLVTIYRSFKRVGASYERQSRDTPILLEAPTGLAEGSSLHTPLALPHHKPPQPSCSPCAPRVSEPGTSSQQSTEILSESPSPSDPVLPLPALIQEGRSTSVTNDKLTSKMNAEEDSEEMPSLLTSTVQVASDNLIPQIRDKEDPQEMPHSPLGSMPEIRDNSPEPNDPEEPQEVSSTPSDKKGKKRKRCIWSTPKRRHKKKSLPRGTASSRHGIQKKLKRVDQVPQKKDDSTCNSTVETRAQKARTECARKSRSEEIIDGTSEMNEGKRSQKTPSTPRRVTQGAASPGHGIQEKLQVVDKVTQRKDDSTWNSEVMMRVQKARTKCARKSRSKEKKKEKDICSSSKRRFQKNIHRRGKPKSDTVDFHCSKLPVTCGEAKGILYKKKMKHGSSVKCIRNEDGTWLTPNEFEVEGKGRNAKNWKRNIRCEGTTLGELLKRKNSDECEVCCQGGQLLCCGTCPRVFHEDCHIPPVEAKRMLWSCTFCRMKRSSGSQQCHHVSKTLERQMQPQDQLIRDYGEPFQEAMWLDLVKERLITEMYTVAWFVRDMRLMFRNHKTFYKASDFGQVGLDLEAEFEKDLKDVLGFHEANDGGFWTLP
# B4: Sp110m: mutant Sp110 protein in which two of the three LXXLL leucine residues were changed, one to valine and one to alanine (LXXVA) (protein)
# chain: B3 chain
# B5: IFN-γ: interferon (protein, UniProt P01579 24-161, looked up)
# Interferon gamma: QDPYVKEAENLKKYFNAGHSDVADNGTLFLGILKNWKEESDRKIMQSQIVSFYFKLFKNFKDDQSIQKSVETIKEDMNVKFFNSNKKKRDDFEKLTNYSVTDLNVQRKAIHELIQVMAELSPAAKTGKRKRSQMLFRG
# Tests used:
# CBP = assay: Mammalian two-hybrid assay with GAL4-CBP in COS cells; type: cell-based; details: VP16 fusions, compared with VP16 alone
# Excerpt: PPARα interacted with the N-terminal portion of CBP/p300 between amino acid residues 39 and 221. To determine whether Sp110 also interacts with CBP, the mammalian two-hybrid system was used as an assay. In this assay, the GAL4 DNA-binding domain (GAL4) fused to CBP (GAL4-CBP) and a luciferase reporter gene containing GAL4 response elements were expressed in COS cells with either Sp110 fused to the herpes simplex virus VP16 activation domain (VP16-Sp110) or VP16 alone. […] Thus, Sp110 interacts, either directly or indirectly, with CBP. The site of functional interaction between Sp110 and CBP was mapped more specifically to amino acid residues 271–720 of CBP. The Sp110-CBP functional interaction domain is therefore distinct from the PPARα-CBP interaction domain.
# To identify the portion of Sp110 that functionally interacts with CBP, the N-terminal or C-terminal portions of Sp110 were fused to VP16 and expressed in COS cells together with GAL4CBP and a reporter gene. […] As described below, studies can be carried out to further delineate the domains that mediate functional interaction between Sp110 and CBP and to test whether Sp110 interacts with CBP directly.
# [1] = system: CAT reporter plasmid containing five GAL4 binding sites and an SV40 enhancer region (pG5SV-BCAT); assay: GAL4 fusion / CAT reporter gene transcription assay in COS cells; type: cell-based
# Excerpt: To examine the potential effect of Sp110 on gene transcription, a eukaryotic expression plasmid encoding Sp110 fused to the DNA-binding domain of GAL4 (pBXG-Sp1110) was co-transfected with a CAT reporter plasmid containing five GAL4 binding sites and an SV40 enhancer region (pG5SV-BCAT) into COS cells.
# To identify the portion of Sp110 that enhances reporter gene expression, DNA segments encoding fragments of Sp110 fused to GAL4 were expressed with a reporter gene in COS cells. […] The mechanism by which Sp110 enhances PPARα-mediated gene transcription can be investigated, as described below, by identifying proteins that interact with the activation domain and SAND domain.
# PPARα = PPARα co-activation reporter assay (PPRE) in COS cells; type: cell-based; details: COS cells co-transfected with PPARα; compared with PPARα expressed alone
# Excerpt: Sp110 also acted as a co-activator of PPARα. […] Sp110 may interact with nuclear hormone receptors via an LXXLL domain. To determine whether Sp110 interacts with PPARα via the LULL domain, oligonucleotides and PCR were used to prepare a mutant Sp110 protein (Sp110m) in which two of the three leucine residues were changed, one to valine and one to alanine (LXXVA).
# RARα response element = assay: RAR transcriptional co-activation reporter assay; type: cell-based; details: for signal transduction through RARα / expression of the reporter gene: expressed with RARα
# Description: Experiments were also performed to determine whether Sp110 could function as a retinoic acid receptor (RAR) transcriptional co-activator. […] The extent of reporter gene activation by Sp110 was similar to that induced by the nuclear body component PML.
# PPARγ receptor = assay: PPARγ signal transduction reporter assay; type: cell-based
# HL60 cells = assay: Sp110 mRNA level by RNA blot after IFN-γ treatment; type: cell-based, human; details: 200 units/ml, 48 hours
# Description: To investigate the expression of Sp110 in cells of the monocyte/granulocyte lineage, RNA was prepared from the myeloid precursor cell lines HL60 and NB4 (HL60 cells are available from the American Type Culture Collection, Manassas, Va.). RNA was extracted from these cell lines using the guanidinium isothiocyanate-cesium chloride method (Sambrook et al., Cold Spring Harbor Laboratory, Cold Spring Harbor, N.Y., 1989). The HL60 cells were maintained in RPMI supplemented with 10% fetal calf serum, L-glutamine (2 mM), penicillin (200 units/ml), and streptomycin (200 mg/ml). RNA was fractionated in formaldehyde-agarose gels (5 μg/lane) and equal loading of RNA was confirmed by staining 28S and 18S ribosomal RNA with ethidium bromide. RNA was transferred to nylon membranes and the membranes were hybridized with the radiolabeled XbaI restriction fragment of the Sp110 cDNA or the EcoRI/BamHI restriction fragment of the cDNA encoding human Sp100 (Bloch et al., J. Biol. Chem. 46:29198–29204, 1996). Membranes were washed and analyzed by autoradiography. Low levels of Sp110 mRNA were detected in both NB4 cells and HL60 cells.
# To examine the effect of cellular differentiation on Sp110 mRNA, NB4 cells were treated for 48 hours with all trans retinoic acid (ATRA) (1 μM). […] To examine the effect of IFN-γ treatment on Sp110 mRNA levels, HL60 cells were treated with IFN-γ (200 units/ml) for 48 hours.
Molecule,GAL4-CBP-induced luciferase reporter gene activity (CBP),reporter gene expression by fragments of Sp110 fused to GAL4 [1],agonist-induced expression of the PPRE reporter gene / activation of the PPARα receptor (PPARα),signal transduction through RARα / expression of the reporter gene (RARα response element),signal transduction through the PPARγ receptor (PPARγ receptor),further results
B1,did not,"Neither the N-terminal (Sp100-like domain), nor the C-terminal (PHD/bromodomain) portions of Sp110 increased expression of the reporter gene",–,–,–,–
B2,enhanced,"Neither the N-terminal (Sp100-like domain), nor the C-terminal (PHD/bromodomain) portions of Sp110 increased expression of the reporter gene",–,–,–,–
B3,–,–,markedly enhanced,enhanced signal transduction,enhanced signal transduction,"ATRA-induced expression of the reporter gene (RARα response element; COS cells, reporter with three copies of the RARα response element): significantly enhanced"
B4,–,–,less than wild-type Sp110,also enhanced expression of the reporter gene,enhanced signal transduction,–
B5,–,–,–,–,–,Sp110 mRNA level (HL60 cells): marked increase
